Assay results published in the supplement of paper PMC6757056.
± gives the standard deviation of the averaged measurements.

B1: library; a variant is named by its letters at N, in order (parent)
chain: GCUGUCACCGGAAUACCAGCAUCGUCUUGAUGCCCUUGGAAGUCCGGUCUGAUGAGUCCNNNNNGGACGAAACAGC

Columns and labels:
theophylline [1] = variants of: B1; experiment: FACS-Seq fitted mean relative fluorescence mCherry/BFP without ligand (log10 relative fluorescence); higher = higher reporter protein expression; details: HEK293T, ligand present: no
Protocol: (§1)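 Hammerhead (sTRSV) ribozyme switch libraries with a ligand aptamer grafted on stem I and a randomized N4-6 loop II, cloned into the 3' UTR of mCherry and transiently transfected into HEK293T cells; RNA-Seq 72 h post transfection with ligand added 1 h before transfection; RNA read count / plasmid DNA read count normalized to the non-cleaving sTRSVctl (x100), log10; sequences with >100 DNA reads. FACS-Seq: lentiviral library sorted into 6 bins after 48 h ligand, log-normal fit mean of mCherry/BFP scaled to controls. Printed sequences are partial switch sequences.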

theophylline [2] = variants of: B1; experiment: normalized RNA/DNA level with ligand (relative to sTRSVctl = 100) (log10 (% of sTRSVctl)); higher = less ribozyme self-cleavage, higher mRNA level; details: ligand concentration (+) RNA-Seq: 5 mM, HEK293T, reporter: mCherry (pCS4076), ligand present: yes
Protocol: as §1

theophylline [3] = variants of: B1; experiment: normalized RNA/DNA level without ligand (relative to sTRSVctl = 100) (log10 (% of sTRSVctl)); higher = less ribozyme self-cleavage, higher mRNA level; details: HEK293T, reporter: mCherry (pCS4076), ligand present: no
Protocol: as §1

theophylline [4] = variants of: B1; experiment: FACS-Seq fitted mean relative fluorescence mCherry/BFP with ligand (log10 relative fluorescence); ligand concentration (+) FACS-Seq: 1 mM; higher = higher reporter protein expression; details: HEK293T, ligand present: yes
Protocol: as §1

Row | Variant | FACS-Seq fitted mean (log10) (theophylline [1]) | normalized RNA/DNA level with ligand (log10) (theophylline [2]) | normalized RNA/DNA level without ligand (log10) (theophylline [3]) | FACS-Seq fitted mean (log10) (theophylline [4])
1 | UCCGU | 0.694 ± 0.021 | 2.029 ± 0.013 | 2.03 ± 0.14 | 0.619 ± 0.023
2 | UCCGA | 0.81 ± 0.1 | 2.12 ± 0.14 | 1.946 ± 0.0097 | 0.6689 ± 0.002
3 | UCCGG | 1.14 ± 0.16 | 1.97 ± 0.12 | 2.05 ± 0.077 | 1.02 ± 0.03
4 | GAUGU | 0.101 ± 0.097 | 1.88 ± 0.052 | 1.71 ± 0.099 | 0.375 ± 0.068
5 | GAUGC | 0.964 ± 0.13 | 1.98 ± 0.029 | 1.88 ± 0.098 | 1.05 ± 0.072
6 | GAUGG | -0.543 ± 0.056 | 2 ± 0.062 | 1.8 ± 0.022 | -0.332 ± 0.0071
7 | CCCUA | 0.768 ± 0.05 | 2.01 ± 0.077 | 1.872 ± 0.011 | 0.751 ± 0.022
8 | CCCUU | 1.13 ± 0.16 | 1.99 ± 0.035 | 1.89 ± 0.049 | 1.07 ± 0.036
9 | CCCUC | 0.893 ± 0.045 | 2.032 ± 0.012 | 2.11 ± 0.057 | 0.84 ± 0.019
10 | ACCCA | 0.9 ± 0.021 | 2.02 ± 0.044 | 1.93 ± 0.066 | 0.869 ± 0.033
11 | ACCCU | 0.718 ± 0.011 | 2.023 ± 0.016 | 1.93 ± 0.091 | 0.587 ± 0.09
12 | ACCCG | 0.917 ± 0.11 | 2 ± 0.012 | 1.94 ± 0.12 | 0.973 ± 0.031
13 | ACCCC | 0.753 ± 0.1 | 2.037 ± 0.0066 | 1.99 ± 0.053 | 0.657 ± 0.08
14 | CCACA | 0.241 ± 0.0081 | 1.97 ± 0.022 | 1.75 ± 0.096 | 0.47 ± 0.086
15 | CCACU | 0.682 ± 0.012 | 2.01 ± 0.059 | 1.76 ± 0.16 | 0.818 ± 0.014
16 | CCACC | 0.788 ± 0.091 | 1.99 ± 0.087 | 1.97 ± 0.061 | 0.739 ± 0.01
17 | CCAGU | 0.937 ± 0.067 | 1.974 ± 0.0042 | 1.9 ± 0.12 | 0.929 ± 0.058
18 | CCAGC | 0.9205 ± 0.0079 | 1.96 ± 0.056 | 1.994 ± 0.008 | 0.864 ± 0.14

Row | Variant | FACS-Seq fitted mean (log10) (theophylline [1]) | normalized RNA/DNA level with ligand (log10) (theophylline [2]) | normalized RNA/DNA level without ligand (log10) (theophylline [3]) | FACS-Seq fitted mean (log10) (theophylline [4])
19 | CCAGA | 0.765 ± 0.044 | 1.95 ± 0.15 | 1.86 ± 0.098 | 0.758 ± 0.085
20 | GCCCU | 1.072 ± 0.0027 | 1.97 ± 0.025 | 1.98 ± 0.057 | 0.918 ± 0.027
21 | UCAAG | 0.7373 ± 0.0072 | 2.034 ± 0.0095 | 1.79 ± 0.16 | 0.974 ± 0.053
22 | UCAAU | 0.686 ± 0.07 | 2 ± 0.028 | 1.83 ± 0.095 | 0.789 ± 0.093
23 | UCAAC | 0.851 ± 0.1 | 1.89 ± 0.03 | 1.79 ± 0.049 | 0.879 ± 0.062
24 | UCAAA | -0.0221 ± 0.095 | 1.97 ± 0.042 | 1.3 ± 0.091 | 0.459 ± 0.023
25 | AAUGC | 0.537 ± 0.0095 | 2 ± 0.06 | 1.89 ± 0.025 | 0.692 ± 0.11
26 | AAUGA | 0.467 ± 0.024 | 1.964 ± 0.0034 | 1.46 ± 0.08 | 0.691 ± 0.086
27 | AAUGG | 0.773 ± 0.076 | 2.06 ± 0.078 | 1.73 ± 0.094 | 0.962 ± 0.016
28 | AAUGU | 0.7078 ± 0.0026 | 1.99 ± 0.056 | 1.77 ± 0.23 | 0.788 ± 0.011
29 | CAUCC | 0.98 ± 0.04 | 2.04 ± 0.045 | 2 ± 0.12 | 1.162 ± 0.0037
30 | ACAAG | 0.857 ± 0.14 | 1.99 ± 0.033 | 1.81 ± 0.12 | 0.8889 ± 0.0072
31 | ACAAC | 0.304 ± 0.051 | 1.97 ± 0.051 | 1.86 ± 0.038 | 0.206 ± 0.062
32 | ACAAA | 0.425 ± 0.062 | 2 ± 0.045 | 1.44 ± 0.11 | 0.7048 ± 0.0042
33 | ACAAU | 0.476 ± 0.2 | 1.99 ± 0.077 | 1.75 ± 0.096 | 0.44 ± 0.037
34 | CCCAA | 0.563 ± 0.0093 | 2.012 ± 0.0096 | 1.82 ± 0.13 | 0.684 ± 0.021
35 | CCCAU | 0.699 ± 0.08 | 1.97 ± 0.028 | 1.901 ± 0.019 | 0.822 ± 0.04
